Target: the molecule itself
Experiment: cryo-EM structure

B1: GroES (natural protein, E. coli)
chain: MNIRPLHDRVIVKRKEVETKSAGGIVLTGSAAAKSTRGEVLAVGNGRILENGEVKPLDVKVGDIVIFNDGYGVKSEKIDNEEVLIMSESDILAIVEA
stoichiometry N: 7
